From patent US5792629A, “Isolated DNA encoding novel protease inhibitory polypeptide” (Mochida Pharmaceutical Co., Ltd., priority 1990, dated 1998)
Entries after “also recorded” stand apart in the source; their conditions may differ.

What was measured:
[1] = system: ORTHO Plasma Coagulation Control Level 1; assay: Measurement of activated partial thromboplastin time (aPTT); settings: for effect on aPTT, anticoagulant activity: conclusion from Table 1; for aPTT (%): aPTT of distilled water control taken as 100%
Procedure: The COAGTEC (TE-600, ERMA OPTICAL WORKS LTD), a measurement instrument, was used and the following operation was conducted at 37° C. to measure the effect of polypeptide of the present invention on activated partial thromboplastin time (hereinafter abbreviated as aPTT).
First, purified samples obtained in Example 1 (5), Example 2 (5) and Example 3 (4) were dissolved in 100 μl of distilled water. Concentration of each solution was determined based on bovine trypsin-inhibiting activity using UTI as a standard. Each solution was then diluted to various concentration levels for activity measurement.
Afterward, 50 μl of the ORTHO Plasma Coagulation Control Level 1 (Ortho Diagnostic Systems Co., Ltd.) was put into glass tubes. 50 μl of the sample or 50 μl of distilled water as control was added. Furthermore, 100 μl of the Activated THROMBOFAX Reagent-Optimized (Ortho Diagnostic Systems Co., Ltd.) was added and then each glass tube was set in the apparatus. 100 μl of 0.02M CaCl2 was then added to each glass tube for the measurement, and aPTT for each test samples and the control was obtained.
The aPTT values of the samples are described in percentage when taking the aPTT value of control as 100%.

[2] = target: T1, human plasma kallikrein (Homo sapiens, UniProt P03952); assay: Human plasma kallikrein-inhibiting activity, substrate S-2302; format: biochemical; settings: for human plasma kallikrein-inhibiting activity: purified sample, various concentrations, remaining activity vs buffer control (FIG. 17A-C)
T1 construct: purchased Sigma Chemical Co
T1 sequence (P03952 20-638): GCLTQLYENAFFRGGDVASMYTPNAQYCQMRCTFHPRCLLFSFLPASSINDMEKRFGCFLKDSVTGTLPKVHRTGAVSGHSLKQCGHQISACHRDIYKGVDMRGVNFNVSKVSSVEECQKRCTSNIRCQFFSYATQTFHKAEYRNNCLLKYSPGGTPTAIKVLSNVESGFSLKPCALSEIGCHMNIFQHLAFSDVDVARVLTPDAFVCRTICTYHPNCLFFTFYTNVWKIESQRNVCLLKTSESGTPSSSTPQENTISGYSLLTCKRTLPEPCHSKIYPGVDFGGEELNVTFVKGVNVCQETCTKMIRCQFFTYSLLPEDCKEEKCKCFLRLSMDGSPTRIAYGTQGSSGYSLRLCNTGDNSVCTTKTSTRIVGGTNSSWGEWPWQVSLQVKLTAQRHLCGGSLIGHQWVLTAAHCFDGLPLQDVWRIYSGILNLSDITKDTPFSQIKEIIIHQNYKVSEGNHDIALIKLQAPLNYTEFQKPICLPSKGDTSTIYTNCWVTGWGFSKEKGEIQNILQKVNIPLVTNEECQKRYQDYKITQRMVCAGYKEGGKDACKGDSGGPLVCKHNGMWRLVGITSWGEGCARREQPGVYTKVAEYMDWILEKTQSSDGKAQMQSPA
Procedure: The purified sample obtained in Example 1-(5) was dissolved in 100 μl of distilled water. Concentration of this solution was determined based on its bovine trypsin-inhibiting activity using the aforementioned UTI as a standard. The solution was then diluted to various concentration levels with 0.1% BSA/150 mM NaCl/50 mM Tris-HCl buffer (pH 8.3) for use in the activity measurement. The UTI was also diluted in the same manner. Using a synthetic compound S-2302 (Daiichi Pure Chemicals Co., Ltd.) as a substrate, human plasma kallikrein-inhibiting activities of the diluted test samples and the positive control were measured in accordance with the method of Ohno et al. (Ohno,H. et al., Thromb. Res., vol.19, pp.579-588, 1980) as follows.
0.26 U/ml solution of human plasma kallikrein (Sigma Chemical Co.) was diluted with 0.1% BSA/150 mM NaCl/50 mM Tris-HCl buffer (pH 8.3) to prepare 0.08 U/ml of plasma kallikrein solution. 4 mM solution of S-2302 was prepared by dissolving it in distilled water and the solution was further diluted with 0.1% BSA/150 mM NaCl/50 mM Tris-HCl buffer (pH 8.3) to prepare 2 mM solution of S-2302.
Next, 25 μl of the test sample or positive control was mixed with 75 μl of 0.1% BSA/150 mM NaCl/50 mM Tris-HCl buffer (pH 8.3) and 50 μl of the plasma kallikrein solution. After incubation at 37° C. for 10 minutes, 50 μl of the S-2302 solution was added to the mixture to start the reaction. The reaction was carried out at 37° C. for 8 minutes and then stopped by adding 25 μl of 50% acetic acid solution to the reaction mixture. Thereafter, absorbance at 405 nm was measured using a spectrophotometer.
In this instance, in order to eliminate absorbance of various solutions in the reaction mixture a blank solution was prepared by mixing 50 μl of the plasma kallikrein solution with 25 μl of 50% acetic acid and then with 25 μl of each test sample or the positive control, 75 μl of 0.1% BSA/150 mM NaCl/50 mM Tris-HCl buffer (pH 8.3) and with 50 μl of the S-2302 solution.
In this figure, human plasma kallikrein remaining activity was expressed by percentage based on the absorbance of a control reaction mixture in which 25 μl of 0.1% BSA/150 mM NaCl/50 mM Tris-HCl buffer (pH 8.3) was used instead of the test sample or the positive control.

[3] = system: elastase; settings: literature report; cited from earlier work
[4] = target: FXa (Homo sapiens, UniProt P00742); settings: literature reports, very high concentration; cited from earlier work
Chain of FXa (P00742 235-488 limits assumed): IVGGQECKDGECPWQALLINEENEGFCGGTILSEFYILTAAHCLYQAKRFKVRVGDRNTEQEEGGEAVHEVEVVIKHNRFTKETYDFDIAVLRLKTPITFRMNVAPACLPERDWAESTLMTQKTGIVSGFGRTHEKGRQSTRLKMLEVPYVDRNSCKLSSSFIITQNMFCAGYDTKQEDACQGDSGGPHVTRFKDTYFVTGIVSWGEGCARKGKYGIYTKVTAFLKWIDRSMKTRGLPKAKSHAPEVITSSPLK
Chain of FXa (P00742 41-179 partner limits assumed): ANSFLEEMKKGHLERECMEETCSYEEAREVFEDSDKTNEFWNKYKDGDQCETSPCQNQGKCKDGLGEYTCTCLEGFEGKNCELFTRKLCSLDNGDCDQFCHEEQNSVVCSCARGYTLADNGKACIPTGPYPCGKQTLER

[5] = system: chymotrypsin; settings: literature report; cited from earlier work
[6] = system: trypsin; settings: literature report; cited from earlier work
[7] = target: plasmin (Homo sapiens, UniProt P00747); settings: literature report; cited from earlier work
Chain of plasmin (P00747 581-810 limits assumed, species assumed): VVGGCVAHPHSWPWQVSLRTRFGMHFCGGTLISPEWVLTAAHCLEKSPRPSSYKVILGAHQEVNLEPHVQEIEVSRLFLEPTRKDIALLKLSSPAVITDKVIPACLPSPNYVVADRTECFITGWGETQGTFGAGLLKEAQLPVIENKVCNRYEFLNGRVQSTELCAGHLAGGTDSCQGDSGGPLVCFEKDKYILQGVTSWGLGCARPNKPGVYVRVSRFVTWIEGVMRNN
Chain of plasmin (P00747 97-580 partner limits assumed, species assumed): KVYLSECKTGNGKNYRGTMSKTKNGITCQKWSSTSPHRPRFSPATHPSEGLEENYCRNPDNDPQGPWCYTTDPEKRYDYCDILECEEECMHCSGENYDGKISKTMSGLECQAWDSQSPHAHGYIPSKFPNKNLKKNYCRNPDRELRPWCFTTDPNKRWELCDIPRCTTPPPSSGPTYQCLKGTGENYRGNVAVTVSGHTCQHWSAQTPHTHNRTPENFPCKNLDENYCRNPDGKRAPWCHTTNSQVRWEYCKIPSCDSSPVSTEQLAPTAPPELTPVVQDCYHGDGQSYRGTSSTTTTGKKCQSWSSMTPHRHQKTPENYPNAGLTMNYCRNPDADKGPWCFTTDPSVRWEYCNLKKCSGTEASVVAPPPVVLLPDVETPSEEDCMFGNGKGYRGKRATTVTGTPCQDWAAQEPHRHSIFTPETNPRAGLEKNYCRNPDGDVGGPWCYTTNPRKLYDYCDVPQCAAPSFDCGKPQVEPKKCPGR

| Molecule | effect on aPTT, anticoagulant activity [1] | aPTT (%) ([1]; final concentration 33 U/ml) | aPTT (%) ([1]; final concentration 167 U/ml) | human plasma kallikrein-inhibiting activity [2] | inhibition of elastase [3] | inhibition of FXa activity [4] | plasma kallikrein-inhibiting activity ([2]; experiments of the inventors, stated in the background) | inhibition of chymotrypsin [5] | inhibition of trypsin [6] | inhibition of plasmin [7] |
| --- | --- | --- | --- | --- | --- | --- | --- | --- | --- | --- |
| CC51: polypeptide defined by the amino acid sequence of formula 1, purified from culture supernatant of E. coli JE5505 (pM560) (CNLPIVRGPCRAFIQLWAFDAVKGKCVLFPYGGCQGNGNKFYSEKECREYC) | have an effect to extend aPTT and anticoagulant activity | 172 | 256 | activity was found | – | – | – | – | – | – |
| UTI: urinary trypsin inhibitor purified from human urine (Mochida Pharmaceutical), used as positive control (protein, glycoprotein (sugar moieties, as the filing says in general of UTI)) AVLPQEEEGSGGGQLVTEVTKKEDSCQLGYSAGPCMGMTSRYFYNGTSMACETFQYGGCMGNGNNFVTEKECLQTCRTVAACNLPIVRGPCRAFIQLWAFDAVKGKCVLFPYGGCQGNGNKFYSEKECREYCGVPGDGDEELLRFSN | – | – | – | activity was not found | shows the inhibition activities | slightly inhibited; also recorded: inhibited the FXa activity | no plasma kallikrein-inhibiting activity | shows the inhibition activities | shows the inhibition activities | shows the inhibition activities |
| TL66: polypeptide defined by formula 8; known enzyme-digested fragment of urinary trypsin inhibitor, made in E. coli JE5505 (pM551) (protein) TVAACNLPIVRGPCRAFIQLWAFDAVKGKCVLFPYGGCQGNGNKFYSEKECREYCGVPGDGDEELL | have an effect to extend aPTT and anticoagulant activity | 157 | 239 | activity was found | – | – | – | activities to inhibit | activities to inhibit | activities to inhibit |
| TN70: polypeptide defined by the amino acid sequence of formula 3, purified from culture supernatant of E. coli JE5505 (pM552) (protein) TVAACNLPIVRGPCRAFIQLWAFDAVKGKCVLFPYGGCQGNGNKFYSEKECREYCGVPGDGDEELLRFSN | have an effect to extend aPTT and anticoagulant activity | 155 | 230 | activity was found | – | – | – | – | – | – |
